The target in this test is T1, recombinant HP986 (Helicobacter pylori, UniProt O25636 1-237).
T1 construct: HP986 (HP0986), protein of unknown function from the plasticity zone of Helicobacter pylori; PCR product spanning 711 bp cloned at XhoI/HindIII of pRSETA; about 29 kDa; 711 bp would be 237 codons with the stop or without; also called rHP986; HP0986; source: E. coli BL21 (DE3), purified (Ni2+-NTA, size exclusion chromatography)
T1 sequence: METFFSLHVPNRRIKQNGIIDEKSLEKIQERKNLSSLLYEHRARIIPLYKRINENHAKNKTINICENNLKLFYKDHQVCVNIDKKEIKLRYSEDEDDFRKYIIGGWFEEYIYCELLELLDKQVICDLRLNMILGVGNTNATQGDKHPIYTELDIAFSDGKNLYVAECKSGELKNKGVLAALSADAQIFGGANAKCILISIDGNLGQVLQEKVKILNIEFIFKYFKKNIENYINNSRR
Put plainly: SPR; BIAcore 3000; human TNFR1/Fc amine-coupled to a CM5 chip up to 150 RU; rHP986 at 100, 400, 800 and 1200 nM in PBS, 30 µl/min; 1:1 Langmuir model. Particulars: both partners purified. For orientation: Surface plasmon resonance follows binding to a sensor surface in real time, without labels.

Here are results for one molecule from PMC3137634, “Concurrent Proinflammatory and Apoptotic Activity of a Helicobacter pylori Protein (HP986) Points to Its Role in Chronic Persistence” (PLoS ONE, 2011).

B1: Human TNFR1/Fc (Fc fusion, UniProt P19438 30-211, looked up)
chain: LVPHLGDREKRDSVCPQGKYIHPQNNSICCTKCHKGTYLYNDCPGPGQDTDCRECESGSFTASENHLRHCLSCSKCRKEMGQVEISSCTVDRDTVCGCRKNQYRHYWSENLFQCFNCSLCLNGTVHLSCQEKQNTVCTCHAGFFLRENECVSCSNCKKSLECTKLCLPQIENVKGTEDSGTT
notes: soluble human TNFR1 (tumor necrosis factor receptor 1) fused to Fc; Commercial TNFR1/Fc chimeras usually hold the extracellular domain joined to human IgG1 Fc at the C-terminus; also called soluble humanTNFR1; hu TNFR1; source: bought: Sigma, USA
As for B1, the koff worked out at 0.000908 s⁻¹ and the kon was found to be 12600 M⁻¹ s⁻¹.

For orientation: koff means the rate constant with which the complex falls apart. One may read the kon as the second-order rate constant of association.
